Data reported in paper PMC8455617 (2021).
“And” between values parts separate entries of the source, which are not always exact repeats. Equal entries are not always repeated.

T1: citrate synthase, mitochondrial (Sus scrofa, UniProt P00889)
T1 chain: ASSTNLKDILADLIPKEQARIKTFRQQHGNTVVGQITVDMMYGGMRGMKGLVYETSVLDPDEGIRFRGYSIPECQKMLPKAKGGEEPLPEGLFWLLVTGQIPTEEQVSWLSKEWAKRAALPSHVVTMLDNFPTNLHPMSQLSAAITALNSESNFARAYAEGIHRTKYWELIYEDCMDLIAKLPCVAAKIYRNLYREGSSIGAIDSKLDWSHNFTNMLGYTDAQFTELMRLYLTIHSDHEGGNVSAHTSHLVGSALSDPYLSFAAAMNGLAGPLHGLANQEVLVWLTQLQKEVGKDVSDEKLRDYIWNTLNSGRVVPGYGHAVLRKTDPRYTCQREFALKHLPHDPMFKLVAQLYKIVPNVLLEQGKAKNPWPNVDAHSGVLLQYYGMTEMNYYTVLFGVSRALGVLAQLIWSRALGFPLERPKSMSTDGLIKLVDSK

B1: malate dehydrogenase, mitochondrial (protein)
chain: AKVAVLGASGGIGQPLSLLLKNSPLVSRLTLYDIAHTPGVAADLSHIETRATVKGYLGPEQLPDCLKGCDVVVIPAGVPRKPGMTRDDLFNTNATIVATLTAACAQHCPDAMICIISNPVNSTIPITAEVFKKHGVYNPNKIFGVTTLDIVRANAFVAELKGLDPARVSVPVIGGHAGKTIIPLISQCTPKVDFPQDQLSTLTGRIQEAGTEVVKAKAGAGSATLSMAYAGARFVFSLVDAMNGKEGVVECSFVKSQETDCPYFSTPLLLGKKGIEKNLGIGKISPFEEKMIAEAIPELKASIKKGEEFVKNMK
modifications: 10 mM succinyl-CoA
B2: malate dehydrogenase, mitochondrial (protein)
chain: AKVAVLGASGGIGQPLSLLLKNSPLVSRLTLYDIAHTPGVAADLSHIETRATVKGYLGPEQLPDCLKGCDVVVIPAGVPRKPGMTRDDLFNTNATIVATLTAACAQHCPDAMICIISNPVNSTIPITAEVFKKHGVYNPNKIFGVTTLDIVRANAFVAELKGLDPARVSVPVIGGHAGKTIIPLISQCTPKVDFPQDQLSTLTGRIQEAGTEVVKAKAGAGSATLSMAYAGARFVFSLVDAMNGKEGVVECSFVKSQETDCPYFSTPLLLGKKGIEKNLGIGKISPFEEKMIAEAIPELKASIKKGEEFVKNMK
modifications: 10 mM ATP
B3: malate dehydrogenase, mitochondrial (protein)
chain: AKVAVLGASGGIGQPLSLLLKNSPLVSRLTLYDIAHTPGVAADLSHIETRATVKGYLGPEQLPDCLKGCDVVVIPAGVPRKPGMTRDDLFNTNATIVATLTAACAQHCPDAMICIISNPVNSTIPITAEVFKKHGVYNPNKIFGVTTLDIVRANAFVAELKGLDPARVSVPVIGGHAGKTIIPLISQCTPKVDFPQDQLSTLTGRIQEAGTEVVKAKAGAGSATLSMAYAGARFVFSLVDAMNGKEGVVECSFVKSQETDCPYFSTPLLLGKKGIEKNLGIGKISPFEEKMIAEAIPELKASIKKGEEFVKNMK
modifications: 10 mM oxaloacetate and acetyl-CoA
B4: malate dehydrogenase, mitochondrial (protein)
chain: AKVAVLGASGGIGQPLSLLLKNSPLVSRLTLYDIAHTPGVAADLSHIETRATVKGYLGPEQLPDCLKGCDVVVIPAGVPRKPGMTRDDLFNTNATIVATLTAACAQHCPDAMICIISNPVNSTIPITAEVFKKHGVYNPNKIFGVTTLDIVRANAFVAELKGLDPARVSVPVIGGHAGKTIIPLISQCTPKVDFPQDQLSTLTGRIQEAGTEVVKAKAGAGSATLSMAYAGARFVFSLVDAMNGKEGVVECSFVKSQETDCPYFSTPLLLGKKGIEKNLGIGKISPFEEKMIAEAIPELKASIKKGEEFVKNMK
modifications: 10 mM oxaloacetate
B5: malate dehydrogenase, mitochondrial (protein)
chain: AKVAVLGASGGIGQPLSLLLKNSPLVSRLTLYDIAHTPGVAADLSHIETRATVKGYLGPEQLPDCLKGCDVVVIPAGVPRKPGMTRDDLFNTNATIVATLTAACAQHCPDAMICIISNPVNSTIPITAEVFKKHGVYNPNKIFGVTTLDIVRANAFVAELKGLDPARVSVPVIGGHAGKTIIPLISQCTPKVDFPQDQLSTLTGRIQEAGTEVVKAKAGAGSATLSMAYAGARFVFSLVDAMNGKEGVVECSFVKSQETDCPYFSTPLLLGKKGIEKNLGIGKISPFEEKMIAEAIPELKASIKKGEEFVKNMK
modifications: 10 mM NADH
B6: malate dehydrogenase, mitochondrial (protein)
chain: AKVAVLGASGGIGQPLSLLLKNSPLVSRLTLYDIAHTPGVAADLSHIETRATVKGYLGPEQLPDCLKGCDVVVIPAGVPRKPGMTRDDLFNTNATIVATLTAACAQHCPDAMICIISNPVNSTIPITAEVFKKHGVYNPNKIFGVTTLDIVRANAFVAELKGLDPARVSVPVIGGHAGKTIIPLISQCTPKVDFPQDQLSTLTGRIQEAGTEVVKAKAGAGSATLSMAYAGARFVFSLVDAMNGKEGVVECSFVKSQETDCPYFSTPLLLGKKGIEKNLGIGKISPFEEKMIAEAIPELKASIKKGEEFVKNMK
modifications: 10 mM succinate
B7: malate dehydrogenase, mitochondrial (protein)
chain: AKVAVLGASGGIGQPLSLLLKNSPLVSRLTLYDIAHTPGVAADLSHIETRATVKGYLGPEQLPDCLKGCDVVVIPAGVPRKPGMTRDDLFNTNATIVATLTAACAQHCPDAMICIISNPVNSTIPITAEVFKKHGVYNPNKIFGVTTLDIVRANAFVAELKGLDPARVSVPVIGGHAGKTIIPLISQCTPKVDFPQDQLSTLTGRIQEAGTEVVKAKAGAGSATLSMAYAGARFVFSLVDAMNGKEGVVECSFVKSQETDCPYFSTPLLLGKKGIEKNLGIGKISPFEEKMIAEAIPELKASIKKGEEFVKNMK
modifications: 10 mM AMP
B8: malate dehydrogenase, mitochondrial (protein)
chain: AKVAVLGASGGIGQPLSLLLKNSPLVSRLTLYDIAHTPGVAADLSHIETRATVKGYLGPEQLPDCLKGCDVVVIPAGVPRKPGMTRDDLFNTNATIVATLTAACAQHCPDAMICIISNPVNSTIPITAEVFKKHGVYNPNKIFGVTTLDIVRANAFVAELKGLDPARVSVPVIGGHAGKTIIPLISQCTPKVDFPQDQLSTLTGRIQEAGTEVVKAKAGAGSATLSMAYAGARFVFSLVDAMNGKEGVVECSFVKSQETDCPYFSTPLLLGKKGIEKNLGIGKISPFEEKMIAEAIPELKASIKKGEEFVKNMK
modifications: 10 mM alpha-ketoglutarate
B9: malate dehydrogenase, mitochondrial (protein)
chain: AKVAVLGASGGIGQPLSLLLKNSPLVSRLTLYDIAHTPGVAADLSHIETRATVKGYLGPEQLPDCLKGCDVVVIPAGVPRKPGMTRDDLFNTNATIVATLTAACAQHCPDAMICIISNPVNSTIPITAEVFKKHGVYNPNKIFGVTTLDIVRANAFVAELKGLDPARVSVPVIGGHAGKTIIPLISQCTPKVDFPQDQLSTLTGRIQEAGTEVVKAKAGAGSATLSMAYAGARFVFSLVDAMNGKEGVVECSFVKSQETDCPYFSTPLLLGKKGIEKNLGIGKISPFEEKMIAEAIPELKASIKKGEEFVKNMK
modifications: 5 mM ATP
B10: malate dehydrogenase, mitochondrial (protein)
chain: AKVAVLGASGGIGQPLSLLLKNSPLVSRLTLYDIAHTPGVAADLSHIETRATVKGYLGPEQLPDCLKGCDVVVIPAGVPRKPGMTRDDLFNTNATIVATLTAACAQHCPDAMICIISNPVNSTIPITAEVFKKHGVYNPNKIFGVTTLDIVRANAFVAELKGLDPARVSVPVIGGHAGKTIIPLISQCTPKVDFPQDQLSTLTGRIQEAGTEVVKAKAGAGSATLSMAYAGARFVFSLVDAMNGKEGVVECSFVKSQETDCPYFSTPLLLGKKGIEKNLGIGKISPFEEKMIAEAIPELKASIKKGEEFVKNMK
modifications: 1.25 mM ATP
B11: malate dehydrogenase, mitochondrial (protein)
chain: AKVAVLGASGGIGQPLSLLLKNSPLVSRLTLYDIAHTPGVAADLSHIETRATVKGYLGPEQLPDCLKGCDVVVIPAGVPRKPGMTRDDLFNTNATIVATLTAACAQHCPDAMICIISNPVNSTIPITAEVFKKHGVYNPNKIFGVTTLDIVRANAFVAELKGLDPARVSVPVIGGHAGKTIIPLISQCTPKVDFPQDQLSTLTGRIQEAGTEVVKAKAGAGSATLSMAYAGARFVFSLVDAMNGKEGVVECSFVKSQETDCPYFSTPLLLGKKGIEKNLGIGKISPFEEKMIAEAIPELKASIKKGEEFVKNMK
modifications: 10 mM CoA
B12: malate dehydrogenase, mitochondrial (protein)
chain: AKVAVLGASGGIGQPLSLLLKNSPLVSRLTLYDIAHTPGVAADLSHIETRATVKGYLGPEQLPDCLKGCDVVVIPAGVPRKPGMTRDDLFNTNATIVATLTAACAQHCPDAMICIISNPVNSTIPITAEVFKKHGVYNPNKIFGVTTLDIVRANAFVAELKGLDPARVSVPVIGGHAGKTIIPLISQCTPKVDFPQDQLSTLTGRIQEAGTEVVKAKAGAGSATLSMAYAGARFVFSLVDAMNGKEGVVECSFVKSQETDCPYFSTPLLLGKKGIEKNLGIGKISPFEEKMIAEAIPELKASIKKGEEFVKNMK
modifications: 10 mM ADP
B13: malate dehydrogenase, mitochondrial (protein)
chain: AKVAVLGASGGIGQPLSLLLKNSPLVSRLTLYDIAHTPGVAADLSHIETRATVKGYLGPEQLPDCLKGCDVVVIPAGVPRKPGMTRDDLFNTNATIVATLTAACAQHCPDAMICIISNPVNSTIPITAEVFKKHGVYNPNKIFGVTTLDIVRANAFVAELKGLDPARVSVPVIGGHAGKTIIPLISQCTPKVDFPQDQLSTLTGRIQEAGTEVVKAKAGAGSATLSMAYAGARFVFSLVDAMNGKEGVVECSFVKSQETDCPYFSTPLLLGKKGIEKNLGIGKISPFEEKMIAEAIPELKASIKKGEEFVKNMK
modifications: 10 mM citrate
B14: malate dehydrogenase, mitochondrial (protein)
chain: AKVAVLGASGGIGQPLSLLLKNSPLVSRLTLYDIAHTPGVAADLSHIETRATVKGYLGPEQLPDCLKGCDVVVIPAGVPRKPGMTRDDLFNTNATIVATLTAACAQHCPDAMICIISNPVNSTIPITAEVFKKHGVYNPNKIFGVTTLDIVRANAFVAELKGLDPARVSVPVIGGHAGKTIIPLISQCTPKVDFPQDQLSTLTGRIQEAGTEVVKAKAGAGSATLSMAYAGARFVFSLVDAMNGKEGVVECSFVKSQETDCPYFSTPLLLGKKGIEKNLGIGKISPFEEKMIAEAIPELKASIKKGEEFVKNMK
modifications: 10 mM oxaloacetate and NADH
B15: malate dehydrogenase, mitochondrial (protein)
chain: AKVAVLGASGGIGQPLSLLLKNSPLVSRLTLYDIAHTPGVAADLSHIETRATVKGYLGPEQLPDCLKGCDVVVIPAGVPRKPGMTRDDLFNTNATIVATLTAACAQHCPDAMICIISNPVNSTIPITAEVFKKHGVYNPNKIFGVTTLDIVRANAFVAELKGLDPARVSVPVIGGHAGKTIIPLISQCTPKVDFPQDQLSTLTGRIQEAGTEVVKAKAGAGSATLSMAYAGARFVFSLVDAMNGKEGVVECSFVKSQETDCPYFSTPLLLGKKGIEKNLGIGKISPFEEKMIAEAIPELKASIKKGEEFVKNMK
modifications: 20 mM ATP
B16: malate dehydrogenase, mitochondrial (protein)
chain: AKVAVLGASGGIGQPLSLLLKNSPLVSRLTLYDIAHTPGVAADLSHIETRATVKGYLGPEQLPDCLKGCDVVVIPAGVPRKPGMTRDDLFNTNATIVATLTAACAQHCPDAMICIISNPVNSTIPITAEVFKKHGVYNPNKIFGVTTLDIVRANAFVAELKGLDPARVSVPVIGGHAGKTIIPLISQCTPKVDFPQDQLSTLTGRIQEAGTEVVKAKAGAGSATLSMAYAGARFVFSLVDAMNGKEGVVECSFVKSQETDCPYFSTPLLLGKKGIEKNLGIGKISPFEEKMIAEAIPELKASIKKGEEFVKNMK
modifications: 10 mM malate

Target: T1, citrate synthase, mitochondrial
Experiment: MST

First: B1
Second: B3
The Kd of the first is 3.8-fold higher: 1970 nM for the first, 520 nM for the second.

Compared with B4, B5 is 3.4-fold higher in Kd: 2230 nM for the first, 7500 nM for the second. The first binds more tightly here.

First: B6
Second: B7
The Kd of the first is 17-fold lower: 180 nM for the first, 3100 nM for the second. The first binds more tightly here.

B8 and B9 are within 1.5-fold of each other in Kd: 1140 nM for the first, 770 nM for the second.

Compared with B10, B11 is 2.2-fold higher in Kd: 1060 nM for the first, 2320 nM for the second. The first binds more tightly here.

Going from B12 to B13, the Kd rises from 2240 nM to 25100 nM (11-fold).

First: B14
Second: B15
The Kd of the first is 2.8-fold higher: 2010 nM for the first, 720 nM for the second. The second binds more tightly here.

In the case of B2, the Kd is reported as 760 nM and 460 nM.
With B16 the Kd was 1850 nM and 1800 nM.
